These are literature values, as cited in paper PMC6780499, “Characterization, Recombinant Production and Structure-Function Analysis of NvCI, A Picomolar Metallocarboxypeptidase Inhibitor from the Marine Snail Nerita versicolor” (Marine Drugs, 2019).

For one data set, the target named is T1, hCPB (Homo sapiens, UniProt P15086).
T1 sequence (P15086 111-417): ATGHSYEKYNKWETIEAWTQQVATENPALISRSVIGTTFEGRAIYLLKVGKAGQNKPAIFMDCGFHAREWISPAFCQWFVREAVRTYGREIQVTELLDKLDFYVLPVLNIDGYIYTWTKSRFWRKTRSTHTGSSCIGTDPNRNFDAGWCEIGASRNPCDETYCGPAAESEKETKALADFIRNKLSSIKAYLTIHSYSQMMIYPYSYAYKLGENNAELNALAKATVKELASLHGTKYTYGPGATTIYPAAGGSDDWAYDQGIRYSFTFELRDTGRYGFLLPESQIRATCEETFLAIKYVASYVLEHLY
Particulars: ref Arolas et al., 2005 [12]; cited from earlier work. The text has this:
Table 2 Ki values of various proteinaceous metallocarboxypeptidases (MCPs) inhibitors. | column: Ki (nM) / rPCI (a); Ki (nM) / rTCI (b); Ki (nM) / rLCI (c); Ki (nM) / rhuman latexin (e)

For another data set, the target named is T2, hTAFI (Homo sapiens, UniProt Q96IY4).
T2 sequence (Q96IY4 115-423): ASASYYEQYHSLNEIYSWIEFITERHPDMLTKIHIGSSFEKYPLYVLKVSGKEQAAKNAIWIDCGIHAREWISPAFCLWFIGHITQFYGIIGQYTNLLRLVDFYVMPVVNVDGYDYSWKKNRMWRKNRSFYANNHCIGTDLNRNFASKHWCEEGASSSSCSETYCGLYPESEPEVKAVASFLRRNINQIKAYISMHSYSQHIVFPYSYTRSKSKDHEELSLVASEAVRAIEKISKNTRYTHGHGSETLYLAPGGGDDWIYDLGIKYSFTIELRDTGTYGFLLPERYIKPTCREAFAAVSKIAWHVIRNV
Particulars: ref Arolas et al., 2005 [12]; cited from earlier work. An excerpt: Table 2 Ki values of various proteinaceous metallocarboxypeptidases (MCPs) inhibitors. | column: Ki (nM) / rPCI (a); Ki (nM) / rTCI (b); Ki (nM) / rACI (d); Ki (nM) / rhuman latexin (e)

The target of the next data set is T3, hCPA4 (Homo sapiens, UniProt Q9UI42).
T3 sequence (Q9UI42 114-421): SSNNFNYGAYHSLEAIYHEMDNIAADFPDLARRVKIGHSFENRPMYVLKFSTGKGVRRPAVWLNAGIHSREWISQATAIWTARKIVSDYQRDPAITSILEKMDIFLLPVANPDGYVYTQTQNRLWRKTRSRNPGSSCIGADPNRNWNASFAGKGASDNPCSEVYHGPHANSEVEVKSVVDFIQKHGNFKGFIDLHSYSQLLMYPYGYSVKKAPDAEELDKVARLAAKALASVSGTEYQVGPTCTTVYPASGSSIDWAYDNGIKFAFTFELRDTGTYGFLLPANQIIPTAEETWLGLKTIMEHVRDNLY
Particulars: ref Tanco et al., 2010 [22]; cited from earlier work. The text has this:
(§1) Table 2 Ki values of various proteinaceous metallocarboxypeptidases (MCPs) inhibitors. | column: Ki (nM) / rPCI (a); Ki (nM) / rTCI (b); Ki (nM) / rLCI (c); Ki (nM) / rACI (d); Ki (nM) / rhuman latexin (e)

In another data set the target is T4, bCPA1 (Bos taurus, UniProt P00730).
T4 sequence (P00730 111-419): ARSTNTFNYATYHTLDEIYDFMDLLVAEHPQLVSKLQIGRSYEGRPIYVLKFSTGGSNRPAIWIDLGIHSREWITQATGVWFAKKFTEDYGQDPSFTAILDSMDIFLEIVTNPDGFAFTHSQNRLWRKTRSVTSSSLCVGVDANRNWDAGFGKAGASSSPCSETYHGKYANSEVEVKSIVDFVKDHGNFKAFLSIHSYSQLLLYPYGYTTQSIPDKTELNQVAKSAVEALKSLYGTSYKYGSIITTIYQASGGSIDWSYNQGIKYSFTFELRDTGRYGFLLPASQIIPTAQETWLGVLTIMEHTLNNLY
Particulars: ref Arolas et al., 2005 [12]; cited from earlier work.
Description: as §1

For a further data set, the target named is T5, hCPA1 (Homo sapiens, UniProt P15085).
T5 sequence (P15085 111-419): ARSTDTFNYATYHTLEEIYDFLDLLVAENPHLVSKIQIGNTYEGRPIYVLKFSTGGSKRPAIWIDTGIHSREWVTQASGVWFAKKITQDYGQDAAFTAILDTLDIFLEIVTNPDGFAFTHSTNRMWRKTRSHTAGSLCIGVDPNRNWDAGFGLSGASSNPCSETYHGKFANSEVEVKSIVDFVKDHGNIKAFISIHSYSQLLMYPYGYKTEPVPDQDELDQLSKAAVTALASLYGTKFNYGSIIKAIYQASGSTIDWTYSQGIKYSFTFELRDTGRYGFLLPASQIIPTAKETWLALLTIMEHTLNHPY
As to conditions: ref Arolas et al., 2005 [12]; cited from earlier work.
Description: as §1

The next data set has as its target T6, hCPA2 (Homo sapiens, UniProt P48052).
T6 sequence (P48052 115-419): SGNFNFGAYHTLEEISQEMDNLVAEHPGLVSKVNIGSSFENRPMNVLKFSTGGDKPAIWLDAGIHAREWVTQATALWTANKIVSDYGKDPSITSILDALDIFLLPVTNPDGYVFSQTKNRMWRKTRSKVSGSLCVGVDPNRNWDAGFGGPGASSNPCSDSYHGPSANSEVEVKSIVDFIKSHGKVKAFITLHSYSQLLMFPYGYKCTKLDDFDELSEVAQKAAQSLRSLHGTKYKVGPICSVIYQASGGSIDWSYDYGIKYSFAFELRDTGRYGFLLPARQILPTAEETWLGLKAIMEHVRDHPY
Particulars: ref Arolas et al., 2005 [12]; cited from earlier work.
Description: as §1

For another data set, the target named is T7, bTAFI (Bos taurus, UniProt Q2KIG3).
T7 sequence (Q2KIG3 115-423): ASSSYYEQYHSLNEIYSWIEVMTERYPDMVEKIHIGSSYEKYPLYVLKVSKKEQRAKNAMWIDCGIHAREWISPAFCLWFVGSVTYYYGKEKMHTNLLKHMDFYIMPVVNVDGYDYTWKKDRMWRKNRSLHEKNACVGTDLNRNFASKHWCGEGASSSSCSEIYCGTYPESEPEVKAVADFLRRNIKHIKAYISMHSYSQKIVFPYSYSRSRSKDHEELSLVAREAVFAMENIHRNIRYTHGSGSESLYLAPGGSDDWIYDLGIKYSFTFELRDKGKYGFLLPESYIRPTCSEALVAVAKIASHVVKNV
As to conditions: ref Arolas et al., 2005 [12]; cited from earlier work. The text has this: Table 2 Ki values of various proteinaceous metallocarboxypeptidases (MCPs) inhibitors. | column: Ki (nM) / rPCI (a); Ki (nM) / rTCI (b)

The target of the next data set is T8, pCPB (Sus scrofa, UniProt P09955).
T8 sequence (P09955 111-416): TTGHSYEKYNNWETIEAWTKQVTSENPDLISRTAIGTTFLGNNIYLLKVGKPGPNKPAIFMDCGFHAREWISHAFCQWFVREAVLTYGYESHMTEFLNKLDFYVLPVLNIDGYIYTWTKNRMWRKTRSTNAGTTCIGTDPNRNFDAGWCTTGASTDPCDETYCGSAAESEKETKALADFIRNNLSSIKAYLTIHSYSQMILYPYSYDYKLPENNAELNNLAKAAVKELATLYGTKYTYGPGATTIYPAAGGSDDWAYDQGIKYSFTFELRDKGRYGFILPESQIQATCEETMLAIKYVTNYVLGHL
As to conditions: ref Arolas et al., 2005 [12]; cited from earlier work. An excerpt: Table 2 Ki values of various proteinaceous metallocarboxypeptidases (MCPs) inhibitors. | column: Ki (nM) / rPCI (a); Ki (nM) / rTCI (b); Ki (nM) / rLCI (c)

Usually Ki stands for the dissociation constant of the complex between target and ligand, obtained from inhibition or displacement. Regarding “rPCI: recombinant proteinaceous carboxypeptidase inhibitor from potato (QQHADPICNKPCKTHDDCSGAWFCQACWNSARTCGPYVG; UniProt P01075 1-39, looked up) [reference compound]”, the Ki with hCPB is 1.8 ± 0.3 nM; with hTAFI, 5.2 ± 0.5 nM; with hCPA4, 1.3 ± 0.1 nM; with bCPA1, 1.6 ± 0.2 nM; in the data set with hCPA1 it was 1.6 ± 0.3 nM; with hCPA2, 8.8 ± 0.7 nM. The Ki with bTAFI was 2.5 ± 0.4 nM; in the data set with pCPB it was 7.2 ± 0.6 nM.
